Conditions: Rattus norvegicus; pH 7.3; 20 °C; GdnHCl; Fluorescence; potassium phosphate 20 mM; whole UniProt chain shown

B1: Fatty acid-binding protein, intestinal wild type, P02693 (protein)
chain: MAFDGTWKVDRNENYEKFMEKMGINVVKRKLGAHDNLKLTITQEGNKFTVKESSNFRNIDVVFELGVDFAYSLADGTELTGTWTMEGNKLVGKFKRVDNGKELIAVREISGNELIQTYTYEGVEAKRIFKKE
- denaturant midpoint (higher = more stable): 1.4 M
- unfolding free energy: 5 kcal/mol

Source: FireProtDB (doi:10.1021/bi012042l)
